# Source: patent USRE50631 (VELOSBIO, dated 2025)
# B1: ADC-Q (antibody, human IgG1, kappa, V domains shown)
# VH: QVQLQESGPGLVKPSQTLSLTCTVSGYAFTAYNIHWVRQAPGQGLEWMGSFDPYDGGSSYNQKFKDRLTISKDTSKNQVVLTMTNMDPVDTATYYCARGWYYFDYWGHGTLVTVSS
# VL: DIVMTQTPLSLPVTPGEPASISCRASKSISKYLAWYQQKPGQAPRLLIYSGSTLQSGIPPRFSGSGYGTDFTLTINNIESEDAAYYFCQQHDESPYTFGEGTKVEIKR
# modifications: deglycosylated with PNGase F; azido-PEG3-amine put on glutamine residues by microbial transglutaminase, then DBCO-(PEG2-VC-PAB-MMAE)2 via a triazole (chain and positions not stated); DAR 4.4
# notes: also called Ab1-DBCO-(PEG2-VC-PAB-MMAE)2
# B2: ADC-N (antibody, human IgG1, kappa, V domains shown)
# VH: B1 VH
# VL: B1 VL
# modifications: MAL-PEG4-VC-PAB-DMEA-PNU-159682 bonded via cysteine residues of the antibody (chain and positions not stated)
# notes: Antibody-drug conjugate of Ab1; also called Ab1-MAL-PEG4-VC-PAB-DMEA-PNU-159682
# B3: ADC-C (antibody, human IgG1, kappa, V domains shown)
# VH: B1 VH
# VL: B1 VL
# modifications: MAL-VC-PAB-DM1 bonded via cysteine residues of the antibody (chain and positions not stated)
# B4: ADC-B (antibody, human IgG1, kappa, V domains shown)
# VH: B1 VH
# VL: B1 VL
# modifications: SMCC-DM1 bonded via lysine residues of the antibody (chain and positions not stated); SMCC-DM1 bonded via lysine residues of the antibody (chain and positions not stated); DAR 3.0 to 3.20
# B5: ADC-O (antibody, human IgG1, kappa, V domains shown)
# VH: B1 VH
# VL: B1 VL
# modifications: MAL-C2-Gly3-EDA-PNU-159682 bonded via cysteine residues of the antibody (chain and positions not stated)
# notes: Antibody-drug conjugate of Ab1; also called Ab1-MAL-C2-Gly3-EDA-PNU-159682
# B6: 4A5 (antibody, V domains shown)
# VH: EVKLVESGGGLVKPGGSLKLSCAASGFTFSSYAMSWVRQIPEKRLEWVASISRGGTTYYPDSVKGRFTISRDNVRNILYLQMSSLRSEDTAMYYCGRYDYDGYYAMDYWGQGTSVTVSS
# VL: DIKMTQSPSSMYASLGERVTITCKASPDINSYLSWFQQKPGKSPKTLIYRANRLVDGVPSRFSGGGSGQDYSLTINSLEYEDMGIYYCLQYDEFPYTFGGGTKLEMK
# notes: also called anti-ROR1 antibody 4A5
# B7: ADC-T (antibody, V domains shown)
# VH: B6 VH
# VL: B6 VL
# modifications: MAL-VC-PAB-MMAE bonded via cysteine residues of the antibody (positions not stated)
# notes: Antibody-drug conjugate of 4A5; also called 4A5-MAL-VC-PAB-MMAE
# B8: D10 (antibody, V domains shown)
# VH: QVQLKESGPGLVAPSQTLSITCTVSGFSLTSYGVHWVRQPPGKGLEWLGVIWAGGFTNYNSALKSRLSISKDNSKSQVLLKMTSLQTDDTAMYYCARRGSSYSMDYWGQGTSVIVSS
# VL: EIVLSQSPAITAASLGQKVTITCSASSNVSYIHWYQQRSGTSPRPWIYEISKLASGVPVRFSGSGSGTSYSLTISSMEAEDAAIYYCQQWNYPLITFGSGTKLEIQ
# notes: also called antibody D10
# B9: ADC-S (antibody, V domains shown)
# VH: B8 VH
# VL: B8 VL
# modifications: MAL-VC-PAB-MMAE bonded via cysteine residues of the antibody (positions not stated)
# notes: Antibody-drug conjugate of D10; also called D10-MAL-VC-PAB-MMAE
# How the values were obtained:
# [1] = target: T1, human receptor tyrosine kinase like orphan receptor 1 (ROR1) (human, UniProt Q01973 30-937); experiment: binding to Jeko cells; column 'ADC-Q Binding KD (nM)', method not described
# T1 construct: whole, on cells; Target in all assays is endogenous ROR1 on human tumor cell lines; the cell line is named under assay; also called cell surface ROR1
# [2] = target: T1, human receptor tyrosine kinase like …; experiment: binding to Jeko cells; column 'ADC-N Binding KD (nM)', method not described
# [3] = target: T1, human receptor tyrosine kinase like …; experiment: cell-based or functional assay
# [4] = target: T1, human receptor tyrosine kinase like …; experiment: binding to Jeko cells; column 'ADC-O Binding KD (nM)', method not described
# [5] = target: T1, human receptor tyrosine kinase like …; experiment: flow cytometry on Jeko-1 cells (FIG. 3A)
# [6] = target: T1, human receptor tyrosine kinase like …; experiment: flow cytometry on Jeko-1 cells (FIG. 3B)
# T1 sequence (Q01973 30-937): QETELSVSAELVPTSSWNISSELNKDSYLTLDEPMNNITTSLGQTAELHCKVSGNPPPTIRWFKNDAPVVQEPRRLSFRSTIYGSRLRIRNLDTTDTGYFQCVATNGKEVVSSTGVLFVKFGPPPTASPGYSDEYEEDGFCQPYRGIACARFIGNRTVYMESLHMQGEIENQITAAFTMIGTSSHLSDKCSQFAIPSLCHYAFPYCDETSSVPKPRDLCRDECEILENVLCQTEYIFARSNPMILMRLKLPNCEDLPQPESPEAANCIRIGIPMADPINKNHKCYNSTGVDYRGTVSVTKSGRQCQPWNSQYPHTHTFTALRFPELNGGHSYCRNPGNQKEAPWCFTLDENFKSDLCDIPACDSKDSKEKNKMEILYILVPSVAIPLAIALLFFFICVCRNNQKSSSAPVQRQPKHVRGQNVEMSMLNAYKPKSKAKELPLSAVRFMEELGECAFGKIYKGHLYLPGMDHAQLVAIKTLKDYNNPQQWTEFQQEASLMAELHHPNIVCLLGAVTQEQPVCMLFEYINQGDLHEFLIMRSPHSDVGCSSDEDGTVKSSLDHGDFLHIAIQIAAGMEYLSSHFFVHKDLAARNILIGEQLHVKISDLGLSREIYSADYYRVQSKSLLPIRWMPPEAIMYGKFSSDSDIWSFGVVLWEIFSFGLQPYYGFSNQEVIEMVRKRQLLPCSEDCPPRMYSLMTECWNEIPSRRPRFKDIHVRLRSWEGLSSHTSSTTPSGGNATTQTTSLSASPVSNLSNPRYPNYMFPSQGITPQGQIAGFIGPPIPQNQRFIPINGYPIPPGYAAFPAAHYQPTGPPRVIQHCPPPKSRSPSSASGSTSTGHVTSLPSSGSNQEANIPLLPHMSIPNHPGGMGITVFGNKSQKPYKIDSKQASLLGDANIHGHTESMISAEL
binder,measurement,setting,value
B1,Kd,[1],0.23 nM
B2,Kd,[2],0.13 nM
B3,"IC50, cell viability (CellTiter-Glo, 72 h), A2008 cells",[3],> 1000 nM
same,"IC50, cell viability (CellTiter-Glo, 72 h), Bt549 cells",[3],> 1000 nM
same,"IC50, cell viability (CellTiter-Glo, 72 h), DOHH2 cells",[3],> 1000 nM
same,"IC50, cell viability (CellTiter-Glo, 72 h), HBL-1 cells",[3],> 1000 nM
same,"IC50, cell viability (CellTiter-Glo, 72 h), HCC1187 cells",[3],> 1000 nM
same,"IC50, cell viability (CellTiter-Glo, 72 h), JHOM1 cells",[3],> 1000 nM
same,"IC50, cell viability (CellTiter-Glo, 72 h), MDA-MB-468 cells",[3],> 1000 nM
same,"IC50, cell viability (CellTiter-Glo, 72 h), SKOvr3 cells",[3],> 1000 nM
same,"IC50, cell viability (CellTiter-Glo, 72 h), TMD-8 cells",[3],> 1000 nM
same,"IC50, cell viability (CellTiter-Glo, 72 h), TOV112D cells",[3],> 1000 nM
B4,"IC50, cell viability (CellTiter-Glo, 72 h), A2008 cells",[3],49 nM
same,"IC50, cell viability (CellTiter-Glo, 72 h), Bt549 cells",[3],20.2 nM
same,"IC50, cell viability (CellTiter-Glo, 72 h), DOHH2 cells",[3],78.3 nM
same,"IC50, cell viability (CellTiter-Glo, 72 h), HBL-1 cells",[3],70.1 nM
same,"IC50, cell viability (CellTiter-Glo, 72 h), HCC1187 cells",[3],6.2 nM
same,"IC50, cell viability (CellTiter-Glo, 72 h), JHOM1 cells",[3],24.3 nM
same,"IC50, cell viability (CellTiter-Glo, 72 h), MDA-MB-468 cells",[3],18.8 nM
same,"IC50, cell viability (CellTiter-Glo, 72 h), SKOvr3 cells",[3],78.7 nM
same,"IC50, cell viability (CellTiter-Glo, 72 h), TMD-8 cells",[3],50 nM
same,"IC50, cell viability (CellTiter-Glo, 72 h), TOV112D cells",[3],34.2 nM
B5,Kd,[4],0.12 nM
B6,EC50,[5],0.121 µg/mL
B7,EC50,[5],0.193 µg/mL
B8,EC50,[6],0.25 µg/mL
B9,EC50,[6],0.15 µg/mL
